Experimental findings from article PMC5847591 are described below.

The target of the assay is NY-ESO-1_(60–72)–HLA-B*07:02 complex (human). Put plainly: SPR. (In general: Surface plasmon resonance follows binding to a sensor surface in real time, without labels.)

Sequence of KFJ4 TCR, soluble ectodomain (TRAV13-1 α-chain) (P01848 whole entry, looked up, the tested form may be a part): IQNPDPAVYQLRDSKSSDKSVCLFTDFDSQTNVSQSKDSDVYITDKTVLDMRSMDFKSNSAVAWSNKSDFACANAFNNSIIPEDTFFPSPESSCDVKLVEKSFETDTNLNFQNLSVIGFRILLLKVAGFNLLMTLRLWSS
Sequence of KFJ15 TCR, soluble ectodomain (P01848 whole entry, looked up, the tested form may be a part): as above

By Kd is commonly meant the free concentration of one partner at which half of the binding sites on the other are occupied at equilibrium, for simple one-to-one binding. High values mean a looser complex, low ones a tighter complex. One may read the koff as a measure of how fast the partners let go of each other. On to “KFJ4 TCR, soluble ectodomain (TRAV13-1 α-chain) (from UniProt P01848)”, for which the Kd was 52.1 µM and the koff stood at 0.12 s⁻¹.
For “KFJ37 TCR, soluble ectodomain (from UniProt A0A0B4J268 18-107; A0A0B4J1U6 20-113)”, the Kd came out at 40.6 µM and the off-rate (koff) turned out to be 0.109 s⁻¹.
In turn, “KFJ15 TCR, soluble ectodomain (from UniProt P01848)” came in with a Kd of 41.5 µM.
